How the values were obtained:
[1] = target: HLA-A*0201 molecule on human T2 cells (human); assay: T2 cells expressing HLA-A*0201, anti-HLA-A2-PE, FACS (Example 9)
[2] = target: HLA-A*0201 molecule on human T2 cells (human); assay: T2 cells expressing HLA-A*0201, anti-HLA-A2-PE, FACS; conditions: remark: other sources report otherwise

| Binder | In vitro binding affinity (relative to reference peptide HIV pol 589-597) [1] | Concentration of peptide that induces 20% of HLA-A2 expression [2] [µM] | In vitro binding affinity (relative to reference peptide HIV pol 589-597) [2] | mean relative fluorescence intensity at 1.5625 µM peptide (% of HIV peptide) [2] | mean relative fluorescence intensity at 3.125 µM peptide (% of HIV peptide) [2] | mean relative fluorescence intensity at 6.25 µM peptide (% of HIV peptide) [2] | mean relative fluorescence intensity at 25 µM peptide (% of HIV peptide) [2] | mean relative fluorescence intensity at 50 µM peptide (% of HIV peptide) [2] | mean relative fluorescence intensity at 100 µM peptide (% of HIV peptide) [2] |
| --- | --- | --- | --- | --- | --- | --- | --- | --- | --- |
| IVGAETFYV (modifications not checked) [reference peptide HIV pol 589-597, P04585 1021-1029] | 1 |  |  |  |  |  |  |  |  |
| ILDEAYVMA [EGFR-H] |  | 2.8 | 0.2 | 12 | 28.6 | 33.7 | 91.5 | 107 | 87.4 |
